US20110135573A1 (DYAX, published 2011)

How the values were obtained:
[1] = molecular target: T1, Human MMP-9 catalytic domain (BIOMOL, SE-244) (human, UniProt P14780 107-457, limits assumed); assay: Ki,app, enzyme inhibition assay (fluorogenic peptide substrate), IgG
T1 construct: domain: catalytic domain; also called Cat-huMMP-9; cat-huMMP-9

[2] = molecular target: T2, Mouse MMP-9 (R&D, 909-MM), APMA-activated (mouse, UniProt P41245 108-730, limits assumed); assay: as above
T2 construct: also called mMMP-9; mouse MMP-9 (R&D Systems #909-MM-010)

[3] = molecular target: T3, human MMP-2 (Biomol #SE-237) (human, UniProt P08253 110-452, limits assumed); assay: as above
T3 construct: also called hMMP-2

[4] = molecular target: T1, Human MMP-9 catalytic domain (BIOMOL, …); assay: Ki,app, enzyme inhibition assay (fluorogenic peptide substrate), small-scale sFab
Method: (§1) Target enzymes were incubated with inhibitor for two hours at 30° C. in reaction buffer (50 mM Tris-HCl pH 7.5, 150 mM NaCl, 5 mM CaCl₂, 0.05% Brij-35) in a total volume of 90 μL using a white 96 well plate (Costar). […] An anti-MMP-2 antibody (R&D Systems polyclonal IgG #AF902) was similarly tested with 200 nM as the highest inhibitor concentration. Reactions were initiated by the addition of 10 μL of a 10× concentrated stock of substrate, Mca-Lys-Pro-Leu-Gly-Leu-Dap(Dnp)-Ala-Arg-NH2, (Bachem M-2350), at final concentration of 10 μM and monitored at 30° C. in a Molecular Devices' Gemini fluorescence plate reader. The excitation and emission wavelengths were set at 328 nm and 393 nm, respectively. Kinetic data were acquired by the increase in fluorescence, and initial rates for each condition were plotted against the total inhibitor concentration. Reactions were performed in duplicates and all data replicates were plotted in a single graph and fit to the following equation¹: […]

[5] = molecular target: T3, human MMP-2 (Biomol #SE-237); assay: as above
Method: as §1

[6] = molecular target: T1, Human MMP-9 catalytic domain (BIOMOL, …); assay: Ki,app, enzyme inhibition assay (fluorogenic peptide substrate), medium-scale sFab
Method: as §1

[7] = molecular target: T3, human MMP-2 (Biomol #SE-237); assay: as above
Method: as §1

[8] = molecular target: T2, Mouse MMP-9 (R&D, 909-MM), …; assay: Ki,app, enzyme inhibition assay (fluorogenic peptide substrate), small-scale sFab
Method: as §1

T2 sequence (P41245 108-730 limits assumed): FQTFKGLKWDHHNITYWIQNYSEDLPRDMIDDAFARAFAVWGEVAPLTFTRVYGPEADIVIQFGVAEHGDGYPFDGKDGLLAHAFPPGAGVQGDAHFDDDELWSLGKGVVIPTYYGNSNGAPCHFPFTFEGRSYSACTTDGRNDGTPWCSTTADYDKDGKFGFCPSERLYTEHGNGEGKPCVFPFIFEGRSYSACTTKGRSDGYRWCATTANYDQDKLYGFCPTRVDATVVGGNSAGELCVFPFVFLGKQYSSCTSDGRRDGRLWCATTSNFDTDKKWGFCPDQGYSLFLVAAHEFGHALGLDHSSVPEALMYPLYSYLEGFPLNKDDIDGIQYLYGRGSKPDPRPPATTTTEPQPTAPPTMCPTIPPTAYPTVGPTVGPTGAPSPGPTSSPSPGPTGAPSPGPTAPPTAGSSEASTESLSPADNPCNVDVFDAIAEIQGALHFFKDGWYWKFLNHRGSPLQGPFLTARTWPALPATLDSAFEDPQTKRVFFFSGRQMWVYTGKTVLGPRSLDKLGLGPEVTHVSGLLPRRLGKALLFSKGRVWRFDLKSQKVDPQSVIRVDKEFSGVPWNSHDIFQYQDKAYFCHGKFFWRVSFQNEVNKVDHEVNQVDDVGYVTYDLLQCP
T3 sequence (P08253 110-452 limits assumed): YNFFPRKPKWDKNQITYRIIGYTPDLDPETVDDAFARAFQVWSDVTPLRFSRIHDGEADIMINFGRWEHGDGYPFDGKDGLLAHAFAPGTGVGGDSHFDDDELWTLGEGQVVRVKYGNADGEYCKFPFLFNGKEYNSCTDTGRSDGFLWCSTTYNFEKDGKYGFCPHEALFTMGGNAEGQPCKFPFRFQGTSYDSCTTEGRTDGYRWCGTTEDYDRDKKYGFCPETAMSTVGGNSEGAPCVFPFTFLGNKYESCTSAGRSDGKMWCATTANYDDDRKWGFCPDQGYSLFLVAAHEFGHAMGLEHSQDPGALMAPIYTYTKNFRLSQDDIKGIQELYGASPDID
T1 sequence (P14780 107-457 limits assumed): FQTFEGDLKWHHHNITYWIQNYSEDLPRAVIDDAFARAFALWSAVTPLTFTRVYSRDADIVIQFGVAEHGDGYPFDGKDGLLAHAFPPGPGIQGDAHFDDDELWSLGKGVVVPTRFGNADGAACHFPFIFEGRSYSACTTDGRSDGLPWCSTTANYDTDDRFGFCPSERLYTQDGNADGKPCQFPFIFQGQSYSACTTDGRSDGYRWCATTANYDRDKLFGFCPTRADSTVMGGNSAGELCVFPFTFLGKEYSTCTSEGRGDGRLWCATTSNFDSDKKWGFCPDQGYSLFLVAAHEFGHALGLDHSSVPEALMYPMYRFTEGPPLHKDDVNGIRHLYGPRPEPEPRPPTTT

B1: X0106-B02 (antibody, V domains shown)
VH: EVQLLESGGGLVQPGGSLRLSCAASGFTFSWYDMWWVRQAPGKGLEWVSVIYSSGGPTFYADSVKGRFTISRDNSKNTLYLQMNSLRAEDTAVYYCAKDRAYGDYVGWNGFDYWGQGTLVTVSS
VL: EIVLTQSPATLSLSPGERATLSCRASQSISSFLAWYQQKPGQAPRLLIYDASYRATGIPARFSGSGSGTDFTLTISSLEPEDFAVYYCQQRGNWPITFGQGTRLEIK
notes: Produced and tested as IgG1; germlined, optimized version of M0276-F11
A Ki [1] of 0.08 nM, a Ki [2] of 0.24 nM and a Ki [3] of 0.31 nM were found for B1 in this work.

B2: M0299-A12 (Fab, V domains shown)
VH: EVQLLESGGGLVQPGGSLRLSCAASGFTFSHYPMWWVRQAPGKGLEWVSYISSSGGGTFYADSVKGRFTISRDNSKNTLYLQMNSLRAEDTAVYYCAKDRAYGDYVGWNGFDYWGQGTLVTVSS
VL: DIQMTQSPATLSLSPGERATLSCRASQSISSFLAWYQQKPGQAPRLLIYDASYRATGIPARFSGSGSGTDFTLTISSLEPEDYAVYYCQQRGNWPITFGQGTRLEIK
notes: sFab; variable domains only; also called M299-A12
A Ki [4] of 0.2 nM, a Ki [5] of 1.7 nM and a Ki [6] of 0.6 nM were found for B2 in this work. It also gave a Ki [7] of 1.7 nM.

B3: M0272-H08 (Fab, V domains shown)
VH: EVQLLESGGGLVQPGGSLRLSCAASGFTFSAYDMWWVRQAPGKGLEWVSVIYPSGGTTFYADSVKGRFTISRDNSKNTLYLQMNSLRAEDTAVYYCAKDRAYGDYVGWNGFDYWGQGTLVTVSS
VL: DIQMTQSPATLSLSPGERATLSCRASQSISSFLAWYQQKPGQAPRLLIYDASYRATGIPARFSGSGSGTDFTLTISSLEPEDYAVYYCQQRGNWPITFGQGTRLEIK
notes: sFab; variable domains only; also called M272-H08
A Ki [4] of 0.4 nM was found for B3 in this work.

B4: M0273-G07 (Fab, V domains shown)
VH: EVQLLESGGGLVQPGGSLRLSCAASGFTFSHYDMWWVRQAPGKGLEWVSVIYPSGGPTYYADSVKGRFTISRDNSKNTLYLQMNSLRAEDTAVYYCAKDRAYGDYVGWNGFDYWGQGTLVTVSS
VL: DIQMTQSPATLSLSPGERATLSCRASQSISSFLAWYQQKPGQAPRLLIYDASYRATGIPARFSGSGSGTDFTLTISSLEPEDYAVYYCQQRGNWPITFGQGTRLEIK
notes: sFab; variable domains only; also called M273-G07
A Ki [4] of 0.6 nM, a Ki [6] of 0.6 nM and a Ki [7] of 1 nM were found for B4 in this work.

B5: M0306-D04 (Fab, V domains shown)
VH: EVQLLESGGGLVQPGGSLRLSCAASGFTFSLYPMWWVRQAPGKGLEWVSSIYPSGGATFYADSVKGRFTISRDNSKNTLYLQMNSLRAEDTAVYYCAKDRAYGDYVGWNGFDYWGQGTLVTVSS
VL: DIQMTQSPATLSLSPGERATLSCRASQSISSFLAWYQQKPGQAPRLLIYDASYRATGIPARFSGSGSGTDFTLTISSLEPEDYAVYYCQQRGNWPITFGQGTRLEIK
notes: sFab; variable domains only; also called M306-D04
A Ki [4] of 0.9 nM, a Ki [8] of 2.8 nM and a Ki [5] of 1 nM were found for B5 in this work.

B6: M0273-A11 (Fab, V domains shown)
VH: EVQLLESGGGLVQPGGSLRLSCAASGFTFSRYDMWWVRQAPGKGLEWVSVISPSGGATFYADSVKGRFTISRDNSKNTLYLQMNSLRAEDTAVYYCAKDRAYGDYVGWNGFDYWGQGTLVTVSS
VL: DIQMTQSPATLSLSPGERATLSCRASQSISSFLAWYQQKPGQAPRLLIYDASYRATGIPARFSGSGSGTDFTLTISSLEPEDYAVYYCQQRGNWPITFGQGTRLEIK
notes: sFab; variable domains only; also called M273-A11
A Ki [4] of 0.6 nM, a Ki [6] of 0.8 nM and a Ki [7] of 2.7 nM were found for B6 in this work.

B7: M0275-E12 (Fab, V domains shown)
VH: EVQLLESGGGLVQPGGSLRLSCAASGFTFSHYDMWWVRQAPGKGLEWVSVIYSSGGFTGYADSVKGRFTISRDNSKNTLYLQMNSLRAEDTAVYYCAKDRAYGDYVGWNGFDYWGQGTLVTVSS
VL: DIQMTQSPATLSLSPGERATLSCRASQSISSFLAWYQQKPGQAPRLLIYDASYRATGIPARFSGSGSGTDFTLTISSLEPEDYAVYYCQQRGNWPITFGQGTRLEIK
notes: sFab; variable domains only; also called M275-E12
A Ki [4] of 0.3 nM, a Ki [8] of 1 nM and a Ki [5] of 0.9 nM were found for B7 in this work. It also gave a Ki [6] of 0.4 nM and a Ki [7] of 0.5 nM.

B8: X0106-C03 (antibody, V domains shown)
VH: EVQLLESGGGLVQPGGSLRLSCAASGFTFSVYDMWWVRQAPGKGLEWVSVIYPSGGATYYADSVKGRFTISRDNSKNTLYLQMNSLRAEDTAVYYCAKDRAYGDYVGWNGFDYWGQGTLVTVSS
VL: EIVLTQSPATLSLSPGERATLSCRASQSISSFLAWYQQKPGQAPRLLIYDASYRATGIPARFSGSGSGTDFTLTISSLEPEDFAVYYCQQRGNWPITFGQGTRLEIK
notes: Produced and tested as IgG1; germlined, optimized version of M0274-G08; printed as X0106-C04 in some sentences; also called X0106-C04
A Ki [1] of 0.14 nM, a Ki [2] of 0.22 nM and a Ki [3] of 0.42 nM were found for B8 in this work.

B9: M0301-A09 (Fab, V domains shown)
VH: EVQLLESGGGLVQPGGSLRLSCAASGFTFSYYDMWWVRQAPGKGLEWVSVIYPSGGYTAYADSVKGRFTISRDNSKNTLYLQMNSLRAEDTAVYYCAKDRAYGDYVGWNGFDYWGQGTLVTVSS
VL: DIQMTQSPATLSLSPGERATLSCRASQSISSFLAWYQQKPGQAPRLLIYDASYRATGIPARFSGSGSGTDFTLTISSLEPEDYAVYYCQQRGNWPITFGQGTRLEIK
notes: sFab; variable domains only; also called M301-A09
A Ki [4] of 0.3 nM, a Ki [5] of 0.5 nM and a Ki [6] of 0.5 nM were found for B9 in this work. The Ki [7] was 1 nM.

B10: M0299-C09 (Fab, V domains shown)
VH: EVQLLESGGGLVQPGGSLRLSCAASGFTFSNYPMWWVRQAPGKGLEWVSYIVPSGGATFYADSVKGRFTISRDNSKNTLYLQMNSLRAEDTAVYYCAKDRAYGDYVGWNGFDYWGQGTLVTVSS
VL: DIQMTQSPATLSLSPGERATLSCRASQSISSFLAWYQQKPGQAPRLLIYDASYRATGIPARFSGSGSGTDFTLTISSLEPEDYAVYYCQQRGNWPITFGQGTRLEIK
notes: sFab; variable domains only; also called M299-C09
A Ki [4] of 0.7 nM and a Ki [5] of over 5 nM were found for B10 in this work.

B11: M0273-C10 (Fab, V domains shown)
VH: EVQLLESGGGLVQPGGSLRLSCAASGFTFSFYPMWWVRQAPGKGLEWVSYIYPSGGATFYADSVKGRFTISRDNSKNTLYLQMNSLRAEDTAVYYCAKDRAYGDYVGWNGFDYWGQGTLVTVSS
VL: DIQMTQSPATLSLSPGERATLSCRASQSISSFLAWYQQKPGQAPRLLIYDASYRATGIPARFSGSGSGTDFTLTISSLEPEDYAVYYCQQRGNWPITFGQGTRLEIK
notes: sFab; variable domains only; also called M273-C10
A Ki [4] of 0.9 nM, a Ki [6] of 1 nM and a Ki [7] of 2 nM were found for B11 in this work.

B12: X0106-F05 (antibody, V domains shown)
VH: EVQLLESGGGLVQPGGSLRLSCAASGFTFSLYDMWWVRQAPGKGLEWVSVIYSSGGYTGYADSVKGRFTISRDNSKNTLYLQMNSLRAEDTAVYYCAKDRAYGDYVGWNGFDYWGQGTLVTVSS
VL: EIVLTQSPATLSLSPGERATLSCRASQSISSFLAWYQQKPGQAPRLLIYDASYRATGIPARFSGSGSGTDFTLTISSLEPEDFAVYYCQQRGNWPITFGQGTRLEIK
notes: Produced and tested as IgG1; germlined, optimized version of M0307-F04
A Ki [1] of 0.15 nM, a Ki [2] of 0.1 nM and a Ki [3] of 0.3 nM were found for B12 in this work.

B13: M0301-D12 (Fab, V domains shown)
VH: EVQLLESGGGLVQPGGSLRLSCAASGFTFSMYDMWWVRQAPGKGLEWVSVIYSSGGYTSYADSVKGRFTISRDNSKNTLYLQMNSLRAEDTAVYYCAKDRAYGDYVGWNGFDYWGQGTLVTVSS
VL: DIQMTQSPATLSLSPGERATLSCRASQSISSFLAWYQQKPGQAPRLLIYDASYRATGIPARFSGSGSGTDFTLTISSLEPEDYAVYYCQQRGNWPITFGQGTRLEIK
notes: sFab; variable domains only; also called M301-D12
A Ki [4] of 1 nM, a Ki [5] of 1.2 nM and a Ki [6] of 1.7 nM were found for B13 in this work. The Ki [7] was over 10 nM.

B14: M0273-B10 (Fab, V domains shown)
VH: EVQLLESGGGLVQPGGSLRLSCAASGFTFSKYAMIWVRQAPGKGLEWVSWIPPSGGYTSYADSVKGRFTISRDNSKNTLYLQMNSLRAEDTAVYYCAKDRAYGDYVGWNGFDYWGQGTLVTVSS
VL: DIQMTQSPATLSLSPGERATLSCRASQSISSFLAWYQQKPGQAPRLLIYDASYRATGIPARFSGSGSGTDFTLTISSLEPEDYAVYYCQQRGNWPITFGQGTRLEIK
notes: sFab; variable domains only; also called M273-B10
A Ki [4] of 0.7 nM was found for B14 in this work.
